From patent US20190119366A1 (ADC THERAPEUTICS, published 2019)
Substitutions are numbered along the chain they refer to.

B1: 3G10 anti-KAAG1 antibody (antibody, V domains shown)
VH: EIQLQQSGPELVKPGASVKISCKASGYTFTDNYMNWVKQSHGKSLEWIGDINPYYGTTTYNQKFKGKATLTVDKSSRTAYMELRGLTSEDSAVYYCARDDWFDYWGQGTLVTVSA
VL: DVLMTQTPRSLSVSLGDQASISCRSSQSLLHSNGNTYLEWYLQKPGQPPKVLIYKVSNRFSGVPDRFSGSGSGTDFTLKISGVEAEDLGVYYCFQGSHVPLTFGAGTKLELK
B2: 3A4-ADC1 (chimeric 3A4 conjugated to a cytotoxic drug via a cleavable peptide linker) (antibody, human IgG1, kappa, V domains shown)
VH: QIQLVQSGPEMVKPGASVKMSCKASGYTFTDDYMSWVKQSHGKSLEWIGDINPYNGDTNYNQKFKGKAILTVDKSSSTAYMQLNSLTSEDSAVYYCARDPGAMDYWGQGTSVTVSS
VL: DVVMTQTPLSLAVSLGDQASISCRSSQSLLHSNGNTYLEWYLQKPGQSPKLLIHTVSNRFSGVPDRFSGSGSGTDFTLKISRVEAEDLGVYYCFQGSHVPLTFGAGTRLELKR
modifications: cytotoxic drug conjugated via a highly stable peptide linker that is selectively cleaved by lysosomal enzymes; chain and residues of attachment not stated
B3: 3A4-ADC2 (chimeric 3A4 conjugated to an anti-mitotic drug via a non-cleavable linker) (antibody, human IgG1, kappa, V domains shown)
VH: B2 VH
VL: B2 VL
modifications: anti-mitotic drug conjugated via a non-cleavable linker; chain and residues of attachment not stated
B4: humanized 3A4 antibody Lh1Hh1 (antibody, human IgG1, kappa, V domains shown)
VH: QVQLVQSGAEVKKPGASVKVSCKASGYTFTDDYMSWVRQAPGQGLEWMGDINPYNGDTNYNQKFKGRVTITADTSTSTAYMELSSLRSEDTAVYYCARDPGAMDYWGQGTLVTVSS
VL: DIVMTQTPLSLPVTPGEPASISCRSSQSLLHSNGNTYLEWYLQKPGQSPQLLIYTVSNRFSGVPDRFSGSGSGTDFTLKISRVEAEDVGVYYCFQGSHVPLTFGQGTKLEIKR
notes: Human IgG1/kappa; 100% humanized frameworks; also called H1 L1; H1L1
B5: humanized 3A4 antibody Lh2Hh4 (antibody, human IgG1, kappa, V domains shown)
VH: B4 VH with V2I, R38K, M48I, R67K, V68A, I70L, A72V, T74K
VL: B4 VL with I2V, Q50K
notes: Human IgG1/kappa; 10 mouse framework residues retained; also called H4L2
B6: humanized 3A4 antibody Lh1Hh4 (antibody, human IgG1, kappa, V domains shown)
VH: B4 VH with V2I, R38K, M48I, R67K, V68A, I70L, A72V, T74K
VL: B4 VL
notes: Human IgG1/kappa
B7: humanized 3A4 antibody Lh2Hh2 (antibody, human IgG1, kappa, V domains shown)
VH: B4 VH with V2I, T74K
VL: B4 VL with I2V, Q50K
notes: Human IgG1/kappa
B8: humanized 3A4 antibody Lh1Hh3 (antibody, human IgG1, kappa, V domains shown)
VH: B4 VH with V2I, M48I, V68A, I70L, A72V, T74K
VL: B4 VL
notes: Human IgG1/kappa
B9: humanized 3A4 antibody Lh2Hh3 (antibody, human IgG1, kappa, V domains shown)
VH: B4 VH with V2I, M48I, V68A, I70L, A72V, T74K
VL: B4 VL with I2V, Q50K
notes: Human IgG1/kappa
B10: humanized 3A4 antibody Lh2Hh1 (antibody, human IgG1, kappa, V domains shown)
VH: B4 VH
VL: B4 VL with I2V, Q50K
notes: Human IgG1/kappa

The binders below were run against T1, recombinant human KAAG1 (Kidney associated antigen 1) (human, UniProt Q9UBP8 1-84) (assay: epitope mapping studies (method not described)).
T1 construct: also called KAAG1 protein
T1 sequence: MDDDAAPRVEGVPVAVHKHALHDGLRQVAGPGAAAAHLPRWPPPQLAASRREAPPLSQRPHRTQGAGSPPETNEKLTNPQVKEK
B1: binds.

Each binder was assayed against T2, KAAG1 on the surface of cancer cells (human, UniProt Q9UBP8 1-84) (assay: flow cytometry, MDA-231 cells).
T2 construct: Endogenous KAAG1 of human cancer cell lines and of tumor tissue sections; also called KAAG1 antigen
T2 sequence: T1 sequence
B2: binds. B3: binds.

The binders below were run against T1, recombinant human KAAG1 (Kidney …) (assay: SPR (ProteOn XPR36), antibody captured on anti-human IgG Fc, KAAG1 as analyte).
Protocol: (§1) Immediately after the activation, a 13 μg/mL solution of anti-human IgG Fc fragment specific in 10 mM NaOAc pH 4.5 was injected in the analyte direction at a flow rate of 25 μL/min until approximately 8000 resonance units (RUs) were immobilized. Remaining active groups were quenched by a 300 s injection of 1M ethanolamine at 30 μL/min in the analyte direction, and this also ensures mock-activated interspots are created for blank referencing. The screening of the 3A4 variants for binding to KAAG1 occurred in two steps: an indirect capture of 3A4 variants from cell supernatant onto the anti-human IgG Fc fragment specific surface in the ligand direction(vertical) followed by a KAAG1 injection in the analyte direction. Firstly, one buffer injection for 30 s at 100 uL/min in the ligand direction was used to stabilize the baseline. […] Four to five 3A4 variants along with wild-type 3A4 were simultaneously injected in individual ligand channels for 240 s at flow 25 μL/min. […] The first ligand channel was left empty to use as a blank control if required. This 3A4 capture step was immediately followed by two buffer injections in the analyte direction to stabilize the baseline, and then the gel filtration purified KAAG1 was injected. For a typical screen, five KAAG1 concentrations (8, 2.66, 0.89, 0.29, and 0.098 nM) and buffer control were simultaneously injected in individual analyte channels at 50 μL/min for 120 s with a 600s dissociation phase, resulting in a set of binding sensorgrams with a buffer reference for each of the captured 3A4 variants. The anti-human IgG Fc fragment specific—3A4 complexes were regenerated by a 18 s pulse of 0.85% phosphoric acid for 18 s at 100 μL/min to prepare the anti-human IgG Fc fragment specific surface for the next injection cycle. Sensorgrams were aligned and double-referenced using the buffer blank injection and interspots, and the resulting sensorgrams were analyzed using ProteOn Manager software v3.0.
With B4 the Kd was 470 pM and the “fold difference in binding affinity between the worse variant (H1 L1) and the best variant (H4L2)” value was 4 fold. With B5 the Kd was 100 pM and the “fold weaker affinity than the murine (LcHc)” value was about 6 fold.

What follows are binders tested against T1, recombinant human KAAG1 (Kidney …) (assay: SPR (BioRad ProteOn XPR36): antibody captured on an anti-human IgG Fc surface, KAAG1 injected as analyte, 1:1 Langmuir fit).
Protocol: as §1
In the case of B4, the Kd is reported as 474 pM, the koff is reported as 0.00328 s⁻¹ and the kon is reported as 6.93e+06 M⁻¹ s⁻¹. With B6 the Kd was 149 pM, the koff was 0.000764 s⁻¹ and the kon was 5.14e+06 M⁻¹ s⁻¹. B7 was tested, and the Kd was 245 pM, the koff was 0.00181 s⁻¹ and the kon was 7.4e+06 M⁻¹ s⁻¹. For B5, the Kd was 103 pM, the koff was 0.00047 s⁻¹ and the kon was 4.57e+06 M⁻¹ s⁻¹. B8 gave a Kd of 149 pM, a koff of 0.00096 s⁻¹ and a kon of 6.46e+06 M⁻¹ s⁻¹. B9 gave a Kd of 228 pM, a koff of 0.00102 s⁻¹ and a kon of 4.46e+06 M⁻¹ s⁻¹. In the case of B10, the Kd is reported as 341 pM, the koff is reported as 0.00237 s⁻¹ and the kon is reported as 6.97e+06 M⁻¹ s⁻¹.

What follows are binders tested against T1, recombinant human KAAG1 (Kidney …) (assay: SPR (BioRad ProteOn XPR36); fold difference of KD relative to LcHc).
Protocol: as §1
For B4, the Fold diff. was 29.6. Work on B6 yielded a Fold diff. of 9.3. B7 gave a Fold diff. of 15.3. For B5, the Fold diff. was 6.4. Binder B8 has a Fold diff. of 9.3. With B9 the Fold diff. was 14.3. With B10 the Fold diff. was 21.3.
